# Results reported in US20260226120A1 (University of Washington, published 2026).
# “And” between values parts separate entries of the source, which are not always exact repeats. Identical values can stand only once.
# Molecular target: HLA-DQ7 (MHC class II) on autologous antigen presenting cells (BLCL) of patient 5 (human)
# Assay: cell-based or functional assay
row,Binder,interferon gamma ELISpot with expanded patient 5 T cells
1,LSDGTGLNAL [P17 redesign Des-3 peptide (163-LSDGTGLNAL-172)],"~25 spot forming units/10,000 cells"
2,WSNGLGLDAL [P17 redesign Des-1 peptide (163-WSNGLGLDAL-172)],"~25 spot forming units/10,000 cells"
3,WSDGLALNAL [native dystrophin exon-6 P17 HLA-DQ7 epitope peptide (163-WSDGLALNAL-172)],"~75 spot forming units/10,000 cells and ~3 fold above background"
4,WSDGTGLNAL [P17 redesign Des-2 peptide (163-WSDGTGLNAL-172)],"~25 spot forming units/10,000 cells"
